According to paper PMC9352680, “A comprehensive thermodynamic model for RNA binding by the Saccharomyces cerevisiae Pumilio protein PUF4”:

T1: PUF4 RNA-binding domain (Saccharomyces cerevisiae, UniProt P25339 537-888)
T1 sequence: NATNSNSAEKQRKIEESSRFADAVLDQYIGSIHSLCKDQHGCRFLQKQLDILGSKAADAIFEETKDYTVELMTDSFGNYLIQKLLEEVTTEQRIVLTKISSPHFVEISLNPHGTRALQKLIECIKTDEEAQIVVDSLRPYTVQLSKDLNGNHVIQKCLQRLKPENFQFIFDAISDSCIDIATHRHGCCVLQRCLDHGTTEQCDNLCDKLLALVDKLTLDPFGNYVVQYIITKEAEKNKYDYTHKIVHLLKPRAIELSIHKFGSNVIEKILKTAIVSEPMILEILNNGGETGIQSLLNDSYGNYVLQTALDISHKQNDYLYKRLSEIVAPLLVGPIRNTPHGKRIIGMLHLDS


These binders were tested against T1, PUF4 RNA-binding domain (assay: Mg; RNA-MaP; 20 mM Na-HEPES pH 7.4, 30 mM KOAc, 0.75 mM MgCl2, 0.1% Tween-20, 5% glycerol, 0.1 mg/mL BSA, 2 mM DTT; 25 C; 0.0125-409.6 nM protein). Conditions: tags: N-His6-TEV cleaved; C-SNAP kept, Cy3B-labelled; label: tethered on chip by stalled RNA polymerase.
UCUCUUUGUAUUAGCUCUCUU (ssRNA) [Ic_S1_P4E.1_K4.1_C4.1_H4.1_A4.1_[A6T]_[T7A]_F4.1_[T8G]_[A9C]_T4.1] showed a Kd of 530 nM. With UCUCUUUGUAUUCGCUCUCUU (ssRNA) [Ic_S1_P4E.1_K4.1_C4.1_H4.1_A4.1_[A6T]_[T7C]_F4.1_[T8G]_[A9C]_T4.1] the Kd was 1060 nM. In the case of UCUCUUUGUAUUCCCUCUCUU (ssRNA) [Ic_S1_P4E.1_K4.1_C4.1_H4.1_A4.1_[A6T]_[T7C]_F4.1_[T8C]_[A9C]_T4.1], the Kd is reported as 505 nM. Work on UCUCUUUGUAUCUCUUCUCUU (ssRNA) [Ic_S1_P4E.1_K4.1_C4.1_H4.1_A4.1_[A6C]_F4.1_[T8C]_[A9T]_T4.1] yielded a Kd of 522 nM. UCUCUUUGUAUUCUCUCUCUU (ssRNA) [Ic_S1_P4E.1_K4.1_C4.1_H4.1_A4.1_[A6T]_[T7C]_F4.1_[A9C]_T4.1] showed a Kd of 38.5 nM. Binder UCUCUUUGUAAAUGUCUCUU (ssRNA) [Ic_S1_P3E.1_K3.1_C3.1_H3.1_A3.1_[T5A]_F3.1_[A8G]_T3.1] has a Kd of 97.5 nM. In the case of UCUCUUUGUAUUGUUUCUCUU (ssRNA) [Ic_S1_P4E.1_K4.1_C4.1_H4.1_A4.1_[A6T]_[T7G]_F4.1_[A9T]_T4.1], the Kd is reported as 33.6 nM. Work on UCUCUUUGUAUUGCGUCUCUU (ssRNA) [Ic_S1_P4E.1_K4.1_C4.1_H4.1_A4.1_[A6T]_[T7G]_F4.1_[T8C]_[A9G]_T4.1] yielded a Kd of 926 nM. Work on UCUCUUUGUAUUCUUUCUCUU (ssRNA) [Ic_S1_P4E.1_K4.1_C4.1_H4.1_A4.1_[A6T]_[T7C]_F4.1_[A9T]_T4.1] yielded a Kd of 27.1 nM. UCUCUUUGUAUAGCCUCUCUU (ssRNA) [Ic_S1_P4E.1_K4.1_C4.1_H4.1_A4.1_[T7G]_F4.1_[T8C]_[A9C]_T4.1] was tested, and the Kd was 108 nM. In the case of UCUCUUUGUAUUUACUCUCUU (ssRNA) [Ic_S1_P4E.1_K4.1_C4.1_H4.1_A4.1_[A6T]_F4.1_[T8A]_[A9C]_T4.1], the Kd is reported as 74.9 nM. Work on UCUCUUUGUAUUCAUUCUCUU (ssRNA) [Ic_S1_P4E.1_K4.1_C4.1_H4.1_A4.1_[A6T]_[T7C]_F4.1_[T8A]_[A9T]_T4.1] yielded a Kd of 141 nM. UCUCUUUGUAUCUCGUCUCUU (ssRNA) [Ic_S1_P4E.1_K4.1_C4.1_H4.1_A4.1_[A6C]_F4.1_[T8C]_[A9G]_T4.1] showed a Kd of 382 nM. UCUCUUUGUAUACGCUCUCUU (ssRNA) [Ic_S1_P4E.1_K4.1_C4.1_H4.1_A4.1_[T7C]_F4.1_[T8G]_[A9C]_T4.1] showed a Kd of 367 nM. Work on UCUCUUUGUAUUACCUCUCUU (ssRNA) [Ic_S1_P4E.1_K4.1_C4.1_H4.1_A4.1_[A6T]_[T7A]_F4.1_[T8C]_[A9C]_T4.1] yielded a Kd of 511 nM. UCUCUUUGUAUUAAAUCUCUU (ssRNA) [Ic_S1_P4E.1_K4.1_C4.1_H4.1_A4.1_[A6T]_[T7A]_F4.1_[T8A]_T4.1] gave a Kd of 95.4 nM. Work on UCUCUUUGUAUUACGUCUCUU (ssRNA) [Ic_S1_P4E.1_K4.1_C4.1_H4.1_A4.1_[A6T]_[T7A]_F4.1_[T8C]_[A9G]_T4.1] yielded a Kd of 844 nM. UCUCUUUGUAUUUGCUCUCUU (ssRNA) [Ic_S1_P4E.1_K4.1_C4.1_H4.1_A4.1_[A6T]_F4.1_[T8G]_[A9C]_T4.1] showed a Kd of 350 nM. UCUCUUUGUAUCAUUUCUCUU (ssRNA) [Ic_S1_P4E.1_K4.1_C4.1_H4.1_A4.1_[A6C]_[T7A]_F4.1_[A9T]_T4.1] gave a Kd of 11.2 nM. UCUCUUUGUAUCUGUUCUCUU (ssRNA) [Ic_S1_P4E.1_K4.1_C4.1_H4.1_A4.1_[A6C]_F4.1_[T8G]_[A9T]_T4.1] gave a Kd of 58.6 nM. UCUCUUUGUAUAGCGUCUCUU (ssRNA) [Ic_S1_P4E.1_K4.1_C4.1_H4.1_A4.1_[T7G]_F4.1_[T8C]_[A9G]_T4.1] showed a Kd of 283 nM. UCUCUUUGUAUUCGAUCUCUU (ssRNA) [Ic_S1_P4E.1_K4.1_C4.1_H4.1_A4.1_[A6T]_[T7C]_F4.1_[T8G]_T4.1] was tested, and the Kd was 753 nM. Work on UCUCUUUGUAUUGGUUCUCUU (ssRNA) [Ic_S1_P4E.1_K4.1_C4.1_H4.1_A4.1_[A6T]_[T7G]_F4.1_[T8G]_[A9T]_T4.1] yielded a Kd of 500 nM. With UCUCUUUGUAUUUGGUCUCUU (ssRNA) [Ic_S1_P4E.1_K4.1_C4.1_H4.1_A4.1_[A6T]_F4.1_[T8G]_[A9G]_T4.1] the Kd was 630 nM. With UCUCUUUGUAUUAUUUCUCUU (ssRNA) [Ic_S1_P4E.1_K4.1_C4.1_H4.1_A4.1_[A6T]_[T7A]_F4.1_[A9T]_T4.1] the Kd was 12.6 nM. In the case of UCUCUUUGUAUUAUCUCUCUU (ssRNA) [Ic_S1_P4E.1_K4.1_C4.1_H4.1_A4.1_[A6T]_[T7A]_F4.1_[A9C]_T4.1], the Kd is reported as 19.3 nM. For UCUCUUUGUAUUCCUUCUCUU (ssRNA) [Ic_S1_P4E.1_K4.1_C4.1_H4.1_A4.1_[A6T]_[T7C]_F4.1_[T8C]_[A9T]_T4.1], the Kd was 114 nM. UCUCUUUGUAUUUAUUCUCUU (ssRNA) [Ic_S1_P4E.1_K4.1_C4.1_H4.1_A4.1_[A6T]_F4.1_[T8A]_[A9T]_T4.1] gave a Kd of 31.8 nM. In the case of UCUCUUUGUAUUACUUCUCUU (ssRNA) [Ic_S1_P4E.1_K4.1_C4.1_H4.1_A4.1_[A6T]_[T7A]_F4.1_[T8C]_[A9T]_T4.1], the Kd is reported as 49.6 nM. Work on UCUCUUUGUAUUUCGUCUCUU (ssRNA) [Ic_S1_P4E.1_K4.1_C4.1_H4.1_A4.1_[A6T]_F4.1_[T8C]_[A9G]_T4.1] yielded a Kd of 462 nM. UCUCUUUGUAUUCCAUCUCUU (ssRNA) [Ic_S1_P4E.1_K4.1_C4.1_H4.1_A4.1_[A6T]_[T7C]_F4.1_[T8C]_T4.1] showed a Kd of 454 nM. In the case of UCUCUUUGUACAUCUCUCUU (ssRNA) [Ib_S1_P3E.1_K3.1_C3.1_H3.1_A3.1_[T5C]_F3.1_[A8C]_T3.1], the Kd is reported as 15.9 nM. Binder UCUCUUUGUAUUGUGUCUCUU (ssRNA) [Ic_S1_P4E.1_K4.1_C4.1_H4.1_A4.1_[A6T]_[T7G]_F4.1_[A9G]_T4.1] has a Kd of 40.2 nM. UCUCUUUGUAUCAAUCUCUU (ssRNA) [Ic_S1_P3E.1_K3.1_C3.1_H3.1_A3.1_[A6C]_F3.1_[T7A]_T3.1] gave a Kd of 108 nM. With UCUCUUUGUAUCUAGUCUCUU (ssRNA) [Ic_S1_P4E.1_K4.1_C4.1_H4.1_A4.1_[A6C]_F4.1_[T8A]_[A9G]_T4.1] the Kd was 43.8 nM. For UCUCUUUGUAUACCGUCUCUU (ssRNA) [Ic_S1_P4E.1_K4.1_C4.1_H4.1_A4.1_[T7C]_F4.1_[T8C]_[A9G]_T4.1], the Kd was 542 nM. For UCUCUUUGUAUUGCAUCUCUU (ssRNA) [Ic_S1_P4E.1_K4.1_C4.1_H4.1_A4.1_[A6T]_[T7G]_F4.1_[T8C]_T4.1], the Kd was 365 nM. Binder UCUCUUUGUAUUGGCUCUCUU (ssRNA) [Ic_S1_P4E.1_K4.1_C4.1_H4.1_A4.1_[A6T]_[T7G]_F4.1_[T8G]_[A9C]_T4.1] has a Kd of 1330 nM. UCUCUUUGUAUUAAUCUCUU (ssRNA) [Ib_S1_P3E.1_K3.1_C3.1_H3.1_A3.1_[A6T]_F3.1_[T7A]_T3.1] was tested, and the Kd was 312 nM. For UCUCUUUGUAUUGCCUCUCUU (ssRNA) [Ic_S1_P4E.1_K4.1_C4.1_H4.1_A4.1_[A6T]_[T7G]_F4.1_[T8C]_[A9C]_T4.1], the Kd was 943 nM. With UCUCUUUGUAUUUAGUCUCUU (ssRNA) [Ic_S1_P4E.1_K4.1_C4.1_H4.1_A4.1_[A6T]_F4.1_[T8A]_[A9G]_T4.1] the Kd was 25.3 nM. For UCUCUUUGUAUACGGUCUCUU (ssRNA) [Ic_S1_P4E.1_K4.1_C4.1_H4.1_A4.1_[T7C]_F4.1_[T8G]_[A9G]_T4.1], the Kd was 683 nM. In the case of UCUCUUUGUAUUUCCUCUCUU (ssRNA) [Ic_S1_P4E.1_K4.1_C4.1_H4.1_A4.1_[A6T]_F4.1_[T8C]_[A9C]_T4.1], the Kd is reported as 313 nM. Binder UCUCUUUGUAUUCAGUCUCUU (ssRNA) [Ic_S1_P4E.1_K4.1_C4.1_H4.1_A4.1_[A6T]_[T7C]_F4.1_[T8A]_[A9G]_T4.1] has a Kd of 642 nM. UCUCUUUGUAUUCGGUCUCUU (ssRNA) [Ic_S1_P4E.1_K4.1_C4.1_H4.1_A4.1_[A6T]_[T7C]_F4.1_[T8G]_[A9G]_T4.1] gave a Kd of over 2300 nM. In the case of UCUCUUUGUAUCUACUCUCUU (ssRNA) [Ic_S1_P4E.1_K4.1_C4.1_H4.1_A4.1_[A6C]_F4.1_[T8A]_[A9C]_T4.1], the Kd is reported as 28.9 nM. For UCUCUUUGUAUUAUGUCUCUU (ssRNA) [Ic_S1_P4E.1_K4.1_C4.1_H4.1_A4.1_[A6T]_[T7A]_F4.1_[A9G]_T4.1], the Kd was 10.8 nM. UCUCUUUGUAUUAAUUCUCUU (ssRNA) [Ic_S1_P4E.1_K4.1_C4.1_H4.1_A4.1_[A6T]_[T7A]_F4.1_[T8A]_[A9T]_T4.1] gave a Kd of 86.5 nM. Work on UCUCUUUGUAUUAGUUCUCUU (ssRNA) [Ic_S1_P4E.1_K4.1_C4.1_H4.1_A4.1_[A6T]_[T7A]_F4.1_[T8G]_[A9T]_T4.1] yielded a Kd of 431 nM. UCUCUUUGUACAUGUCUCUU (ssRNA) [Ic_S1_P3E.1_K3.1_C3.1_H3.1_A3.1_[T5C]_F3.1_[A8G]_T3.1] was tested, and the Kd was 21.8 nM. UCUCUUUGUAUUGCUUCUCUU (ssRNA) [Ic_S1_P4E.1_K4.1_C4.1_H4.1_A4.1_[A6T]_[T7G]_F4.1_[T8C]_[A9T]_T4.1] gave a Kd of 443 nM.
